Assay results published in patent publication US20260091080A1 (CELOSIA THERAPEUTICS, published 2026).
One block for each binder: values may come before it.

Legend:
[1] = molecular target: YES-associated protein (YAP) (UniProt P46937 1-504); test: co-precipitation with expressed Fx
FOXO1 = FOXO1 (UniProt Q12778 1-655, limits assumed); test: co-precipitation with expressed Fx
[2] = molecular target: endogenous TDP-43 of murine N2a cells and mouse brain (mouse, UniProt Q921F2 1-414); test: co-immunoprecipitation from N2a cells and mouse brain
Chain of endogenous TDP-43 of murine N2a cells and mouse brain (Q921F2 whole entry): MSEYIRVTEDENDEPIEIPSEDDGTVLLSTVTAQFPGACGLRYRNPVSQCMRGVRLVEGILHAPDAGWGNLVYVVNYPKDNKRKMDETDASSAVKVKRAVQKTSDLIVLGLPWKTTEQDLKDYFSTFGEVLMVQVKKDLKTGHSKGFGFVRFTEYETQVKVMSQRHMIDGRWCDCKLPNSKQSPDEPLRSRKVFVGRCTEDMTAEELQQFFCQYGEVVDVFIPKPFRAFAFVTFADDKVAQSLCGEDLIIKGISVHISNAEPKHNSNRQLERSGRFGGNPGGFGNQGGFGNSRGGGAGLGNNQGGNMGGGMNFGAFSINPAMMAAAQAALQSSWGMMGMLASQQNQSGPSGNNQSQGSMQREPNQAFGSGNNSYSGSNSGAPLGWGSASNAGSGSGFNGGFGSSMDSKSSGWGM

Chain of YES-associated protein (YAP) (P46937 whole entry): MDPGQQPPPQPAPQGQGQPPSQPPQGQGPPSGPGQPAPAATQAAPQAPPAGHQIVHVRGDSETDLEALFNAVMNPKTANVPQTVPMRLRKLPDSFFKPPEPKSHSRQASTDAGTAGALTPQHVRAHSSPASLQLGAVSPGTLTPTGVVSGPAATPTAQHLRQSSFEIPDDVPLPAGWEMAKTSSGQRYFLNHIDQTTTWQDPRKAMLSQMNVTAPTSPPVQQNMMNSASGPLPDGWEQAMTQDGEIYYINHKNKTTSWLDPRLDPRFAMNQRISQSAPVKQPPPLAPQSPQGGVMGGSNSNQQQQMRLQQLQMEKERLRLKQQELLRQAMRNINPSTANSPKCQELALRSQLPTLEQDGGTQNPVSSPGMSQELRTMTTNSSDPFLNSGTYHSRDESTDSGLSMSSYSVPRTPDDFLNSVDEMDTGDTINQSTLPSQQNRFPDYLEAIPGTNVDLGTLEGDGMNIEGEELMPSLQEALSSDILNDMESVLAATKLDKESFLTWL
Chain of FOXO1 (Q12778 whole entry): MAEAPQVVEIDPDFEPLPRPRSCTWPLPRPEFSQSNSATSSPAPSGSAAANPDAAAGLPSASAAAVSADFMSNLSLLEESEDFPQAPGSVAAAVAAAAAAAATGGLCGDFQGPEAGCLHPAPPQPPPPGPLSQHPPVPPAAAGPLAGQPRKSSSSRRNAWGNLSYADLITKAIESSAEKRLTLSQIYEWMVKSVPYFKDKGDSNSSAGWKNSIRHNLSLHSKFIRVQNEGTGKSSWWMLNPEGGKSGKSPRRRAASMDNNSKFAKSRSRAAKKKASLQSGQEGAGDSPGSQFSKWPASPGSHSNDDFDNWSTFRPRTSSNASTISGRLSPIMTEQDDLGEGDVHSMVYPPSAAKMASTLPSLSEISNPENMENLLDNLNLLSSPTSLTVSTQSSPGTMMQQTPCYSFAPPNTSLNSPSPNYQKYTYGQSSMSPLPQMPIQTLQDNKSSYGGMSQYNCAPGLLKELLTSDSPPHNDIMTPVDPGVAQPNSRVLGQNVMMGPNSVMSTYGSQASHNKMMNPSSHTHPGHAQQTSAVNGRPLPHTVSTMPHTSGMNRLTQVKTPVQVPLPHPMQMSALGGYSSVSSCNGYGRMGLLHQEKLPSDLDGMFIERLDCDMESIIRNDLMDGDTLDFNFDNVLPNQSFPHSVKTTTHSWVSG

binding result [1]: no binding | binding result (FOXO1): no binding
Binder: GDDRKQTIDNSQGAYQEAFDISKKEMQPTH (not shown: V5 tag) [14-3-3θ-Fx-V5 (α-helix 6 (αF) of 14-3-3θ alone)]

binding result [2]: binds
B1: endogenous 14-3-3θ of murine N2a cells and mouse brain (other, UniProt P68254 1-245, looked up)
chain: MEKTELIQKAKLAEQAERYDDMATCMKAVTEQGAELSNEERNLLSVAYKNVVGGRRSAWRVISSIEQKTDTSDKKLQLIKDYREKVESELRSICTTVLELLDKYLIANATNPESKVFYLKMKGDYFRYLAEVACGDDRKQTIENSQGAYQEAFDISKKEMQPTHPIRLGLALNFSVFYYEILNNPELACTLAKTAFDEAIAELDTLNEDSYKDSTLIMQLLRDNLTLWTSDSAGEECDAAEGAEN
